According to PMC9844198:

Molecular target: LD-CLIMP-63-FLAG (soluble CLIMP-63 luminal domain, C-terminal His6-FLAG tag) (human)
Assay: native MS; intact protein mass LC-MS under native-like conditions; MAbPac SEC-1 column, 50 mM ammonium acetate pH 7.5, QExactive HF Orbitrap, high-mass-range mode

Question: “LD-CLIMP-63-FLAG (soluble CLIMP-63 luminal domain, C-terminal His6-FLAG tag) (domain or fragment)” was tested. Which stoichiometry N did it give?
Answer: 3
